Like-named read-outs stand apart in the source and are kept apart here.
How the values were obtained:
[1] = tested on: breast cancer cell lines MCF-7, MDA-MB-231, ZR-75-1; experiment: Resazurin cell viability assay in breast cancer cell lines; details: 100 µM MPP+, 100 µmol/L doxorubicin, 72 h
Protocol: Resazurin-Assay: To determine cell viability, cells were seeded at a density of 10,000 cells/well in 96-well multiplates. […] Afterward, 100 µL from each well was placed in a cavity of a 96-well plate, and the fluorescence was determined on a microplate reader (TECAN infinite M200, Tecan GmbH, Crailsheim, Germany) at an excitation wavelength of 530 nm and an emission wavelength of 590 nm.

P-gp = target: T1, P-gp (Homo sapiens, UniProt P08183); experiment: Transwell assay, MDCKII cells stably expressing P-gp; format: cell-based; details: PSC833 10 µmol/L; 100 µmol/L doxorubicin
T1 construct: expressed in transfected cells; host or cells: MDCKII
Protocol: In brief, MDCKII cells stably expressing P-gp or BCRP were seeded on 0.4 µm Transwell® membrane inserts (200.000 cells/insert; Ø6.5 mm, growth area 0.33 cm2) and allowed to differentiate for five days. The integrity of the monolayer was confirmed by monitoring the trans-epithelial electrical resistance (TEER) using the EVOMX system (WPI, Sarasota, FL, USA). […] Every 30 min, the incubation buffer was removed from the receiver compartment and replaced by a freshly preheated buffer for a total time of 2.5 h.

[2] = substrate: COc1cccc2c1C(=O)c1c(O)c3c(c(O)c1C2=O)C[C@@](O)(C(=O)CO)C[C@@H]3O[C@H]1C[C@H](N)[C@H](O)[C@H](C)O1
[3] = substrate: COc1cccc2c1C(=O)c1c(O)c3c(c(O)c1C2=O)C[C@@](O)(C(=O)CO)C[C@@H]3O[C@H]1C[C@H](N)[C@H](O)[C@H](C)O1; experiment: cells, lysate or membranes; details: other: MDCKII-OCT3; doxorubicin 0–100 µmol/L; 3 min; mean ± SD; 37.0 °C

T1 sequence (P08183 whole entry): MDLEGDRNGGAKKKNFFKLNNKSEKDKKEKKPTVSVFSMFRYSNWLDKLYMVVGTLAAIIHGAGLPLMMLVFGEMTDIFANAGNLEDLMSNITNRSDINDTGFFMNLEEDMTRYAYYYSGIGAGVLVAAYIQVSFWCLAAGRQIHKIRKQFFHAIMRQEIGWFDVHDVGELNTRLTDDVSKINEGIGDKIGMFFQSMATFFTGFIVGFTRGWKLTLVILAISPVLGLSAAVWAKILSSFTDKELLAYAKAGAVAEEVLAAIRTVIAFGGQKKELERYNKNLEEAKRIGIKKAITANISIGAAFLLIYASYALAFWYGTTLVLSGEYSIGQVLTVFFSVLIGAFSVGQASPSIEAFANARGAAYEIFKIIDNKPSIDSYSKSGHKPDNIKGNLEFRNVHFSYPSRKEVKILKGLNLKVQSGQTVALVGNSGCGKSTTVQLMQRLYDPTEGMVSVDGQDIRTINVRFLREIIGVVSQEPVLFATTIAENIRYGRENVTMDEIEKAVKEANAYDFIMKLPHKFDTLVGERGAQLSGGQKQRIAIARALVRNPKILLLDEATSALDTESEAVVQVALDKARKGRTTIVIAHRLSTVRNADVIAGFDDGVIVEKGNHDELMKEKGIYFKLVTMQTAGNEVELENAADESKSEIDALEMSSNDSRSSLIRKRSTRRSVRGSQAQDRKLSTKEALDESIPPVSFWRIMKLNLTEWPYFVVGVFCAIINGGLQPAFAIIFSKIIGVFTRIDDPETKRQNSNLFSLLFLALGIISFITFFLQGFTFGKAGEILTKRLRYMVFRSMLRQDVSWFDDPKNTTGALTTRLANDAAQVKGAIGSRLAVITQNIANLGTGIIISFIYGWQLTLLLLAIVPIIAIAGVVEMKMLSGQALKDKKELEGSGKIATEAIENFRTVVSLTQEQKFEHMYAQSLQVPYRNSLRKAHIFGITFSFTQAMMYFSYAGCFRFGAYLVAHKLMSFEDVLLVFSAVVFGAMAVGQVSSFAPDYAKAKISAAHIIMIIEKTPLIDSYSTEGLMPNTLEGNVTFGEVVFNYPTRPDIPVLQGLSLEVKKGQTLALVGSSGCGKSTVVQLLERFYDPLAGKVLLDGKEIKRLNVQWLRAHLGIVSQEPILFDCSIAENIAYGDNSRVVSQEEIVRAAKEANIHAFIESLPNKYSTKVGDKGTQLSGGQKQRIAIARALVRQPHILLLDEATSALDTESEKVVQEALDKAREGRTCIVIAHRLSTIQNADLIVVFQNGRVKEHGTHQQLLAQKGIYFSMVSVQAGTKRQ

Molecule: C[n+]1ccc(-c2ccccc2)cc1 [MPP+]
- effect of inhibitor on cytotoxic effects of doxorubicin [1]: significantly attenuated

Molecule: C/C=C/C[C@@H](C)C(=O)[C@H]1C(=O)N[C@@H](C(C)C)C(=O)N(C)CC(=O)N(C)[C@@H](CC(C)C)C(=O)N[C@@H](C(C)C)C(=O)N(C)[C@@H](CC(C)C)C(=O)N[C@@H](C)C(=O)N[C@H](C)C(=O)N(C)[C@@H](CC(C)C)C(=O)N(C)[C@@H](CC(C)C)C(=O)N(C)[C@@H](C(C)C)C(=O)N1C [PSC833]
- effect of inhibitor on P-gp-mediated vectorial transport of doxorubicin (P-gp): markedly reduced

B1: OCT1 (Homo sapiens) (protein)
chain: MPTVDDILEQVGESGWFQKQAFLILCLLSAAFAPICVGIVFLGFTPDHHCQSPGVAELSQRCGWSPAEELNYTVPGLGPAGEAFLGQCRRYEVDWNQSALSCVDPLASLATNRSHLPLGPCQDGWVYDTPGSSIVTEFNLVCADSWKLDLFQSCLNAGFLFGSLGVGYFADRFGRKLCLLGTVLVNAVSGVLMAFSPNYMSMLLFRLLQGLVSKGNWMAGYTLITEFVGSGSRRTVAIMYQMAFTVGLVALTGLAYALPHWRWLQLAVSLPTFLFLLYYWCVPESPRWLLSQKRNTEAIKIMDHIAQKNGKLPPADLKMLSLEEDVTEKLSPSFADLFRTPRLRKRTFILMYLWFTDSVLYQGLILHMGATSGNLYLDFLYSALVEIPGAFIALITIDRVGRIYPMAMSNLLAGAACLVMIFISPDLHWLNIIIMCVGRMGITIAIQMICLVNAELYPTFVRNLGVMVCSSLCDIGGIITPFIVFRLREVWQALPLILFAVLGLLAAGVTLLLPETKGVALPETMKDAENLGRKAKPKENTIYLKVQTSEPSGT
- Km [2]: 4.66 ± 3.43 µM

B2: OCT2 (Homo sapiens) (protein)
chain: MPTTVDDVLEHGGEFHFFQKQMFFLLALLSATFAPIYVGIVFLGFTPDHRCRSPGVAELSLRCGWSPAEELNYTVPGPGPAGEASPRQCRRYEVDWNQSTFDCVDPLASLDTNRSRLPLGPCRDGWVYETPGSSIVTEFNLVCANSWMLDLFQSSVNVGFFIGSMSIGYIADRFGRKLCLLTTVLINAAAGVLMAISPTYTWMLIFRLIQGLVSKAGWLIGYILITEFVGRRYRRTVGIFYQVAYTVGLLVLAGVAYALPHWRWLQFTVSLPNFFFLLYYWCIPESPRWLISQNKNAEAMRIIKHIAKKNGKSLPASLQRLRLEEETGKKLNPSFLDLVRTPQIRKHTMILMYNWFTSSVLYQGLIMHMGLAGDNIYLDFFYSALVEFPAAFMIILTIDRIGRRYPWAASNMVAGAACLASVFIPGDLQWLKIIISCLGRMGITMAYEIVCLVNAELYPTFIRNLGVHICSSMCDIGGIITPFLVYRLTNIWLELPLMVFGVLGLVAGGLVLLLPETKGKALPETIEEAENMQRPRKNKEKMIYLQVQKLDIPLN
- Km [2]: 76.1 ± 42.8 µM

B3: OCT3 (Homo sapiens) (protein)
chain: MPSFDEALQRVGEFGRFQRRVFLLLCLTGVTFAFLFVGVVFLGTQPDHYWCRGPSAAALAERCGWSPEEEWNRTAPASRGPEPPERRGRCQRYLLEAANDSASATSALSCADPLAAFPNRSAPLVPCRGGWRYAQAHSTIVSEFDLVCVNAWMLDLTQAILNLGFLTGAFTLGYAADRYGRIVIYLLSCLGVGVTGVVVAFAPNFPVFVIFRFLQGVFGKGTWMTCYVIVTEIVGSKQRRIVGIVIQMFFTLGIIILPGIAYFIPNWQGIQLAITLPSFLFLLYYWVVPESPRWLITRKKGDKALQILRRIAKCNGKYLSSNYSEITVTDEEVSNPSFLDLVRTPQMRKCTLILMFAWFTSAVVYQGLVMRLGIIGGNLYIDFFISGVVELPGALLILLTIERLGRRLPFAASNIVAGVACLVTAFLPEGIAWLRTTVATLGRLGITMAFEIVYLVNSELYPTTLRNFGVSLCSGLCDFGGIIAPFLLFRLAAVWLELPLIIFGILASICGGLVMLLPETKGIALPETVDDVEKLGSPHSCKCGRNKKTPVSRSHL
- Km [3]: 13.0 ± 10.7 µM

— publication PMC8745601 (International Journal of Molecular Sciences, 2021)
